Measurements published in article PMC3217864.

Molecular target: CD91 (human (endogenous in PBMCs)) (UniProt Q07954)
UniProt Q07954, sequence (Q07954 20-4544): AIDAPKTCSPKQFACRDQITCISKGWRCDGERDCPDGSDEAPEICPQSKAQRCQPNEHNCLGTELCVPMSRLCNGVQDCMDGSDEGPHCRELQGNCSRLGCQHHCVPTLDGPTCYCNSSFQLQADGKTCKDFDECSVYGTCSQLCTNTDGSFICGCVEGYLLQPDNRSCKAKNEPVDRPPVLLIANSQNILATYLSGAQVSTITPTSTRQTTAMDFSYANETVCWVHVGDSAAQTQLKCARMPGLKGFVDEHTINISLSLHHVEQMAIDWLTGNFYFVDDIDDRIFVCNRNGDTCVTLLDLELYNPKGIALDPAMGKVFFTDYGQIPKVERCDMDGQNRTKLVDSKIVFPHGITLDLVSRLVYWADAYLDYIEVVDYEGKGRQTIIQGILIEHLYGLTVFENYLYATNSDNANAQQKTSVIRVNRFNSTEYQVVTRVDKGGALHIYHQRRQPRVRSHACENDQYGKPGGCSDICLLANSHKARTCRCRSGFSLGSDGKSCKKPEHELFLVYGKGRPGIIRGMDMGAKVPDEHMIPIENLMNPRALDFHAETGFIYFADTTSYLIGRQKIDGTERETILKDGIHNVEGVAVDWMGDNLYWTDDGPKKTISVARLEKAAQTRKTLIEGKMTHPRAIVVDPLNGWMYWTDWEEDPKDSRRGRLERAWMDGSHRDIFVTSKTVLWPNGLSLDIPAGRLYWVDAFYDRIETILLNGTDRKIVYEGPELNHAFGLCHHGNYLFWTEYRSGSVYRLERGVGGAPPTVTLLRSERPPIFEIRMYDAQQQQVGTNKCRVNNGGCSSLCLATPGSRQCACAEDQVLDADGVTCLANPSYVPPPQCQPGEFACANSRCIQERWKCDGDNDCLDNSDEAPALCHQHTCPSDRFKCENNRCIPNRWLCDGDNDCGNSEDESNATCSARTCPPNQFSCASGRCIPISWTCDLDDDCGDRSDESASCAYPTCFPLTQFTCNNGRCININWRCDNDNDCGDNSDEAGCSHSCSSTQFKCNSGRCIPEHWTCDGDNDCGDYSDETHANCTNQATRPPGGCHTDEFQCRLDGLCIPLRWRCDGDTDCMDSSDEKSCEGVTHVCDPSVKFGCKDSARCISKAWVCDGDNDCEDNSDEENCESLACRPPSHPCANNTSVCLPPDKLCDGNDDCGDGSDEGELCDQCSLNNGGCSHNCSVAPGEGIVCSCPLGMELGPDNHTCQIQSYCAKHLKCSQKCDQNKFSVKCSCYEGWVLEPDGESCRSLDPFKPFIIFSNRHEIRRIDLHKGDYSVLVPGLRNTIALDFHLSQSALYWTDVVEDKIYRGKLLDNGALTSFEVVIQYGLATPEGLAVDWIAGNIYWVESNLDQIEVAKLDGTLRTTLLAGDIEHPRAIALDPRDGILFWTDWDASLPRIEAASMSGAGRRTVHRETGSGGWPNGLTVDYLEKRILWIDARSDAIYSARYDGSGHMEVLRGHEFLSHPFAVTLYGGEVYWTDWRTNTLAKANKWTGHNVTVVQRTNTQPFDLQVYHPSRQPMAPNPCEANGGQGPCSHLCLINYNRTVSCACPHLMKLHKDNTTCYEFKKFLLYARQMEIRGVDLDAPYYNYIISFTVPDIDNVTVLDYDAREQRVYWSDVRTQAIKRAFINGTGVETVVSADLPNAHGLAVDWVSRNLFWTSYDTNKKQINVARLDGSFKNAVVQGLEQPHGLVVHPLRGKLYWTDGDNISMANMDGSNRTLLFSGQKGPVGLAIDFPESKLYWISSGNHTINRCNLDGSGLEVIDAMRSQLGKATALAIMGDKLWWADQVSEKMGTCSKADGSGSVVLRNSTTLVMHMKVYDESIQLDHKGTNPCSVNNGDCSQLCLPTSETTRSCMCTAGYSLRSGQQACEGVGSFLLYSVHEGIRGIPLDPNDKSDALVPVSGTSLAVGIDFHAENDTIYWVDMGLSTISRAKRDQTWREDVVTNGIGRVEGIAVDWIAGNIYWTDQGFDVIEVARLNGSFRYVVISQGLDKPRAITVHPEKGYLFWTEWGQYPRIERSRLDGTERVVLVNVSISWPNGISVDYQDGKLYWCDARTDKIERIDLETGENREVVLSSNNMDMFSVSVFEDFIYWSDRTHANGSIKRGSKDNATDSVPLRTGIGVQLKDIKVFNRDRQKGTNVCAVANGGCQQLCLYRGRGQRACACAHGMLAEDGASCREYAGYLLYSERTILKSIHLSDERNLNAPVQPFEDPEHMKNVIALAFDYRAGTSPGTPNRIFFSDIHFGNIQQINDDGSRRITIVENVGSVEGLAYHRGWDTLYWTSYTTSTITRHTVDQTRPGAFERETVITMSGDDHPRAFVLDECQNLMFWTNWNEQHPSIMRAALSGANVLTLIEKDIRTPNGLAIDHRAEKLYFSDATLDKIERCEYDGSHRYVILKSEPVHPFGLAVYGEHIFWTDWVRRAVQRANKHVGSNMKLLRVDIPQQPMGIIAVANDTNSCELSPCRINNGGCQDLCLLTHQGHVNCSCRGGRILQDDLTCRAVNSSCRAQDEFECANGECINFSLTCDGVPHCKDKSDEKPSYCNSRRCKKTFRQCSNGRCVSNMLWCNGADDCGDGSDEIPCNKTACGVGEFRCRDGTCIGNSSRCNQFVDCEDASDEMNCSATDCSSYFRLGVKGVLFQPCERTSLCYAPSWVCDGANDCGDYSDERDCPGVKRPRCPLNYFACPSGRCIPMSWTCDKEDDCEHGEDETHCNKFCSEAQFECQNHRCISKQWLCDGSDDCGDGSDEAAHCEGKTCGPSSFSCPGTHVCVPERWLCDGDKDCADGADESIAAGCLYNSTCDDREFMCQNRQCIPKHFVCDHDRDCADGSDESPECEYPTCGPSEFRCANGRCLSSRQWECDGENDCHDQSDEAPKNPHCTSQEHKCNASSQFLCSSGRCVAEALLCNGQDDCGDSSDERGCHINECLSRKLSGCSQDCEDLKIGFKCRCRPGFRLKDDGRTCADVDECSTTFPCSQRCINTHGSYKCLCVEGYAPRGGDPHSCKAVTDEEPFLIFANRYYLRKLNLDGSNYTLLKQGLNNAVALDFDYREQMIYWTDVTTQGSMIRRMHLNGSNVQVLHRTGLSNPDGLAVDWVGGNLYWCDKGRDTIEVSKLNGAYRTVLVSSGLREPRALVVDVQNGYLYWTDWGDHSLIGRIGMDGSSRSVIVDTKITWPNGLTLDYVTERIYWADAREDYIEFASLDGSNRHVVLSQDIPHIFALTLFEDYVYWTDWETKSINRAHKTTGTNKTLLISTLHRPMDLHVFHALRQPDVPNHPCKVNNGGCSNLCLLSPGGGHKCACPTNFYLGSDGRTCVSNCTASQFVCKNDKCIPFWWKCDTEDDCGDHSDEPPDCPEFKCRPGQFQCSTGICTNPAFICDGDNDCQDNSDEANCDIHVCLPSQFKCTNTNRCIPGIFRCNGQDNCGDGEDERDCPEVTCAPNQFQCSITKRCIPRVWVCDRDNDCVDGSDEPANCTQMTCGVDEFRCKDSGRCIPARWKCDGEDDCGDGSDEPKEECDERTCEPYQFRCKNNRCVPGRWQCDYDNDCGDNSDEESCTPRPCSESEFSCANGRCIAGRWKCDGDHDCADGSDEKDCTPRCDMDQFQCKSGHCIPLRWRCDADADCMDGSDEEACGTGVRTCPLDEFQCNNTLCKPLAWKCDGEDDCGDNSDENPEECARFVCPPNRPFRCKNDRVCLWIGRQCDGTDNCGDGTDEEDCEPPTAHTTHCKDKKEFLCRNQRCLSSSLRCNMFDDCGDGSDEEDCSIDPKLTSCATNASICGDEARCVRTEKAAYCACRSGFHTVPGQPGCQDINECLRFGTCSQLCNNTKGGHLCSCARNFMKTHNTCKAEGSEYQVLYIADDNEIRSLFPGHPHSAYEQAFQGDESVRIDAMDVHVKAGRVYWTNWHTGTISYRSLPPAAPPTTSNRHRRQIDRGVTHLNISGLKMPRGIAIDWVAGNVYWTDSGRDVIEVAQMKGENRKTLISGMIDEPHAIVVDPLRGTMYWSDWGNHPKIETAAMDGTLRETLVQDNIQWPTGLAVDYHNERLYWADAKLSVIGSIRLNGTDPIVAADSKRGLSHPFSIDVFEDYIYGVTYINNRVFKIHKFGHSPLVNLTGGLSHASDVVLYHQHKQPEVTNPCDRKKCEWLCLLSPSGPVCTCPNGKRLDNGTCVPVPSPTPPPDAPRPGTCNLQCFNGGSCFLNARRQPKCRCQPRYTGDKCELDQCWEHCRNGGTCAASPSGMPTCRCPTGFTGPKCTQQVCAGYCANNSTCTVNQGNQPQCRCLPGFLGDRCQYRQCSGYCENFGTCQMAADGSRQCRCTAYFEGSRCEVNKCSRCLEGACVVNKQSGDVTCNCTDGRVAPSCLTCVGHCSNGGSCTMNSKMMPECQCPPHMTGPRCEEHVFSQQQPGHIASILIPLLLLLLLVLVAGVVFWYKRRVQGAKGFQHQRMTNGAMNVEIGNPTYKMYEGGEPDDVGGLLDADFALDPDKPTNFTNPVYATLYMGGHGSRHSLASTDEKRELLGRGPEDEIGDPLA

HSP70/CMVpp65(495-503)-peptide complex (from UniProt P0DMV8 1-641)
reduction of proliferation of CD8+ T cells (CFSE dilution, 4 days) in PBMCs stimulated with 10 μg/ml HSP70/CMV-PC after 1 h pulse with 500 μg/ml α2-macroglobulin (A2M), the natural ligand of CD91: 86.9%
